Source: patent publication US20260000752A1 (AKSTON BIOSCIENCES, published 2026)

Target: T1, recombinant human Fc(gamma)RI, biotinylated (R&D Systems) (human, UniProt P12314 16-288)
T1 construct: also called rhFc(gamma) receptor I; Fc(gamma) Receptor I
Assay: ELISA pH 7.4; insulin-Fc coated, biotinylated rhFc(gamma)RI titrated (Example 51)

T1 sequence (P12314 16-288 limits assumed): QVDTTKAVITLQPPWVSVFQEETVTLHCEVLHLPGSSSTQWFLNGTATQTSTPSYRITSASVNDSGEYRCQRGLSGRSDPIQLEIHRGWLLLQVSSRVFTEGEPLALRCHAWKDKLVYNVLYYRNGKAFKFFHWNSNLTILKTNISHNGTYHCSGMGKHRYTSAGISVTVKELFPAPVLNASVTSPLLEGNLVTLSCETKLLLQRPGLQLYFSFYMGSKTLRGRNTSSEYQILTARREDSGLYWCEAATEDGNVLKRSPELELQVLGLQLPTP

B1: insulin-Fc fusion protein of SEQ ID NO: 29 (Fc fusion)
chain: FVNQHLCGSHLVEALELVCGERGFHYGGGGGGSGGGGGIVEQCCTSTCSLDQLENYCGGGGGQGGGGQGGGGQGGGGGDCPKCPAPEMLGGPSVFIFPPKPKDTLLIARTPEVTCVVVDLDPEDPEVQISWFVDGKQMQTAKTQPREEQFNGTYRVVSVLPIGHQDWLKGKQFTCKVNNKALPSPIERTISKARGQAHQPSVYVLPPSREELSKNTVSLTCLIKDFFPPDIDVEWQSNGQQEPESKYRTTPPQLDEDGSYFLYSKLSVDKSRWQRGDTFICAVMHEALHNHYTQESLSHSPG
- binding result: binds
